From US11866472B2, “Peptide for treating retinitis pigmentosa” (DAIICHI SANKYO COMPANY, LIMITED, priority 2018, dated 2024)
Changes are numbered by the printed parent chain. Names may count otherwise.

Tests used:
[1] = test system: human umbilical vein endothelial cells (HUVEC); assay: HUVEC migration test; type: cell-based; settings: 300 nM in EGM growth medium; 2 hours
Procedure: HUVEC (Kurabo Industries Ltd.) was cultured for 18 hours under conditions of 37° C. and 5% CO2 in a medium (0.1% BSA-containing serum-free EGM) in which EBM™-2 basal medium (Lonza Walkersville, Inc.) containing 0.1% BSA was supplemented with an EGM™-2 SingleQuots™ additive factor set except for serum and VEGF. Then, the cells were adjusted to 4×10^5 cells/mL with 0.1% BSA-containing serum-free EGM. 4×10^5 cells/mL of the HUVEC suspension was added at 50 μL/well to the upper layer of a chamber of a Corning FluoroBlok HTS 96 Well Multiwell Permeable Support System with a […] High Density PET Membrane (Corning Inc.) having a gelatin-coated membrane. Then, each sample described below (medium 1, 2 or 3) was added at 210 μL/well to the lower layer of the chamber (n=3). […]
A FluoroBlok HTS 96 Well Multiwell Support System supplemented with the cells and the sample was incubated for 2 hours under conditions of 37° C. and 5% CO2. […] The fluorescence intensity (excitation wavelength/fluorescence wavelength: 485 nm/535 nm) of each well was measured using a plate reader (ARVO-MX, PerkinElmer, Inc.), and the migrated cells were counted for each well according to the following expression. Migrated cells=Mean fluorescence intensity of wells containing HUVEC (n=3)—Mean fluorescence intensity of blank wells (n=3).

[2] = test system: ARPE-19 cells (VEGF mRNA); assay: VEGF mRNA induction test using human retinal pigment epithelial cells ARPE-19; type: cell-based; settings: 1 μM peptide co-added with H2O2 500 μM, normal human serum complement 25% and HTRA1 1 μM; 4 hours
Procedure: ARPE-19 cells were cultured until confluent in 12 mm Transwell with […] Pore Polyester Membrane Insert, Sterile (Corning Inc.) under conditions of 37° C. and 5% CO2 using a DMEM/F-12 medium (Wako Pure Chemical Industries, Ltd.) containing 10% fetal bovine serum (FBS) and penicillin-streptomycin (Thermo Fisher Scientific Inc.). Then, the cells were cultured in FBS-free DMEM/F-12 for 5 days. H2O2 (final concentration: 500 μM) was added to the upper and lower layers of the chamber, and normal human serum complement (Quidel Corp.) (final concentration: 25%) was added to the upper layer of the chamber. […] Four hours later, the culture supernatant was removed, and the cells were washed with PBS. Then, mRNA was extracted using SuperPrep™ Cell Lysis & RT Kit for qPCR (Toyobo Co., Ltd.) and subjected to a reverse transcription reaction. The mRNA level of VEGF was quantitatively analyzed by TaqMan Gene Expression Assays (Hs000900055_m1 and Hs02786624_g1; Thermo Fisher Scientific Inc.) using a 7900HT Fast Real-Time PCR System (Applied Biosystems, Inc.). GAPDH was used in the correction of the mRNA level.

[3] = test system: rat model of retinal damage induced by light exposure; assay: Retinal protective effect in rat model of retinal damage induced by light exposure; type: in vivo
Procedure: Rat models of retinal damage induced by light exposure are models that induce the cell death of retinal photoreceptor cells by light exposure and are universally used as model animals of retinal degeneration (Daniel T. Organisciak et al., (1996) Invest Ophthalmol Vis Sci. Vol. 37 (No. 11): p. 2243-2257). A 0.5% (W/V) tropicamide-0.5% phenylephrine hydrochloride ophthalmic solution was ocularly instilled under adaptation to darkness to rats adapted to darkness for 72 hours. Then, the rats were exposed to white light of 5500 Lux for 3 hours. The rats thus exposed were adapted again to darkness for about 24 hours and then raised for 2 days under light-dark conditions of ordinary raising. After euthanasia, the eyeballs were excised and fixed by dipping in a 3.7% (W/V) formaldehyde-0.5 to 1% (W/V) methanol-0.2% (W/V) picric acid fixative for 24 hours or longer. After paraffin embedding, thin sliced sections were prepared. The sections were stained with hematoxylin-eosin, and a nucleus count in an outer nuclear layer of a cross-section of the retina was determined to evaluate retinal damage.
Immediately before light exposure of rats, 5 μL of HTRA1-inhibiting peptide H308 having a concentration of 0.04 mg/mL or 0.2 mg/mL was intravitreally administered under anesthesia. n=4 for a normal saline administration group, and n=5 for the other groups.
The retinal protective effects of three HTRA1-inhibiting peptides prepared in Example 6 were evaluated using the rat models of retinal damage induced by light exposure, constructed in Example (5-1). The operation followed Example 5. n=6 for all groups.

[4] = test system: HFD-HQ-loaded 3-year-old rabbits; assay: Protective effect on RPE cells in rabbit retinal damage model (HFD-HQ loading); type: in vivo; settings: 50 μL of 40 mg/mL intravitreally 2 months after start of HFD-HQ; evaluated at 4 months; vs normal saline fellow eye
Text: Retinal damage models prepared using high-fat diet (HFD) and hydroquinone (HQ) are models in which oxidative stress is induced by a pro-oxidant to cause retinal damage. These models have been reported only for mice (Diego G. Espinosa-Heidmann et al., (2006) Invest Ophthalmol Vis Sci., Vol. 47 (No. 2): p. 729-737). Accordingly, 3-year-old JW rabbits were fed for 4 months with RC4 (Oriental Yeast Co., Ltd.) diet containing 1.5% (W/V) coconut oil-0.25% (W/V) cholesterol-1.5% (W/V) peanut oil-2.4% (W/V) hydroquinone (HFD-HQ) to construct rabbit retinal damage models. After euthanasia, the eyeballs were excised, and the anterior segment of the eye was removed by an external incision of about 5 mm from the corneal limbus. The vitreous body was further separated. Then, retina-choroid-sclera was fixed by dipping in 4% (W/V) paraformaldehyde fixative for 24 hours or longer. […] The stained choroid was observed under a fluorescence microscope (BZ-9000; Keyence Corp.). The area of stained retinal pigment epithelial (RPE) cells was determined to evaluate RPE cell damage.
The retinal protective effect of the HTRA1-inhibiting peptide H308 prepared in Example 1 was evaluated using the rabbit models. […]
After 4 months from the start of feeding, RPE cell hypertrophy in the model animals was evaluated. […]

[5] = molecular target: T1, HTRA1 (cat) (Homo sapiens, UniProt Q92743); assay: HTRA1 (cat) inhibitory activity using peptide substrate H2-Opt (Example 3-1); type: biochemical; settings: decomposition rate of H2-Opt; borate buffer pH 8.5; peptide 1.875 to 1,000 nM
T1 construct: The protease domain (158Gly to 373Lys), which excludes the N-terminal domain and the PDZ domain; made in house; host or cells: E. coli BL21 (DE3)
Procedure: A substrate peptide H2-Opt (Mca-IRRVSYSFK(Dnp)K) (SEQ ID NO:66) (Peptide Institute, Inc.: SEQ ID NO: 54, FIG. 8) was dissolved at 10 mM in DMSO, diluted with an assay buffer (50 mM borate and 150 mM NaCl, pH 8.5), and used at a final concentration of 10 μM. HTRA1 (HTRA1 (cat) or HTRA1 (full)) and each HTRA1-inhibiting peptide diluted with an assay buffer were mixed at 25 μL each and reacted at 37° C. for 20 minutes. Then, 50 μL of the substrate diluted with an assay buffer was added thereto. A fluorescent signal (excitation at 328 nm/emission at 393 nm) was measured using Enspire (PerkinElmer, Inc.). The final concentration of HTRA1 was 100 nM, and the final concentration of the HTRA1-inhibiting peptide was 1.875 to 1,000 nM. PROTEOSAV® SS96F black plate (Sumitomo Bakelite Co., Ltd.) was used in the reaction and the measurement.
The substrate peptide decomposition rate of the HTRA1-inhibiting peptide at each concentration was calculated. When the decomposition rate at an inhibitor concentration of 0 nM was defined as 100%, the HTRA1 (cat) and HTRA1 (full) inhibitory activity of each HTRA1-inhibiting peptide was evaluated (FIGS. 2 and 3).

[6] = 0.2 and 1 μg/eye intravitreally, n=6

T1 sequence (Q92743 158-373): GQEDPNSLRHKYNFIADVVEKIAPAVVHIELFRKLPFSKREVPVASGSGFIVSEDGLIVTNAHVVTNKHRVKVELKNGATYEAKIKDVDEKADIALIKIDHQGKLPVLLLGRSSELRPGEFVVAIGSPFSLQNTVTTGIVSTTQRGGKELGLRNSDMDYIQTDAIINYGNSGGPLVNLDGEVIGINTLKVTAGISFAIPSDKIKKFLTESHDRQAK

B1: H308_D1G_S16A: N-terminal derivative of H308, 1Asp substituted with Gly, with S16A, SEQ ID NO: 24 (FIG. 36) (protein)
chain: GPQFGLFSKYRTPNCADHAGMACVALYEPVCGSDMSTYENECVLCMKIREGGHNIKIIRNGPCGG
B1 was tested, and the “migration of HUVEC induced in serum-containing medium” value [1] was “suppressive effect on the migration of HUVEC”, the “expression of VEGF mRNA” value [2] was “confirmed to suppress the expression of VEGF” and the “nucleus count in an outer nuclear layer on a cross-section of the retina” value (shortened to “nucleus count in an outer nuclear layer”) [3, 6] was “suppressed a decrease in nucleus count in an outer nuclear layer”.

B2: H321AT_D1G_S16A: HTRA1-inhibiting peptide derivative, amino acid sequence SEQ ID NO: 28 (FIG. 40) (protein)
chain: B1 chain with H18F, A19D, V24Y, L26F, E39A, V43T
B2 was tested, and the “nucleus count in an outer nuclear layer” value [3, 6] was “suppressed a decrease in nucleus count in an outer nuclear layer”.

B3: H322AT_D1G_S16A: HTRA1-inhibiting peptide derivative, amino acid sequence SEQ ID NO: 29 (FIG. 41) (protein)
chain: B1 chain with D17Q, A19E, V24Y, E39A, V43T
B3 was tested, and the “nucleus count in an outer nuclear layer” value [3, 6] was “suppressed a decrease in nucleus count in an outer nuclear layer”.

B4: H308: SPINK2 mutant HTRA1-inhibiting peptide, amino acid sequence SEQ ID NO: 9 (FIG. 21) (protein)
chain: B1 chain with G1D, A16S
B4 was tested, and the “nucleus count in an outer nuclear layer” value ([3]; 5 μL of 0.04 mg/mL or 0.2 mg/mL intravitreally immediately before light exposure, vs normal saline) was “effect of suppressing the decrease in nucleus count in an outer nuclear layer was confirmed”, the “hypertrophy of RPE cells: average area of RPE cells” value [4] was “exhibited a suppressive effect on the hypertrophy of RPE cells” and the “hypertrophy of RPE cells: number of RPE cells having a cell area of 1500 μm^2 or larger” value [4] was “exhibited a suppressive effect on the hypertrophy of RPE cells”.

B5: wild-type SPINK2: human serine protease inhibitor Kazal-type 2, 7 kDa, SEQ ID NO: 1 (FIG. 13); control (protein, listed as Homo sapiens)
chain: DPQFGLFSKYRTPNCSQYRLPGCPRHFNPVCGSDMSTYANECTLCMKIREGGHNIKIIRNGPC
In the case of B5, the “HTRA1 (cat) inhibitory activity (in words)” value [5] is reported as “exhibited no HTRA1 inhibitory activity”.
